These results are taken from doi:10.1101/2022.12.21.521430 (bioRxiv, 2022).

The assay concerns the target Gallus gallus TRPV4 isolated ankyrin repeat domain (residues 135-382) (Gallus gallus, UniProt A0A1D5PXA5 135-382). Nature of the assay: cross-linking.

Gallus gallus TRPV4 isolated ankyrin repeat domain (residues 135-382), sequence (A0A1D5PXA5 135-382): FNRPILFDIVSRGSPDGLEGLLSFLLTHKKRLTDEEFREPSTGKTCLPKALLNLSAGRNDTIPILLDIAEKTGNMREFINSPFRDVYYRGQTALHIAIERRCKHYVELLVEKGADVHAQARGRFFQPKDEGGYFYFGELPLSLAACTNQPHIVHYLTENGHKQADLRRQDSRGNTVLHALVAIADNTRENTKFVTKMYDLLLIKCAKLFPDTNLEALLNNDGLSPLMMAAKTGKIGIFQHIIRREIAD

B1: Gallus gallus TRPV4 isolated intrinsically disordered region (residues 2-134) (domain or fragment, UniProt A0A1D5PXA5 2-134, looked up)
chain: ADPEDPRDAGDVLGDDSFPLSSLANLFEVEDTPSPAEPSRGPPGAVDGKQNLRMKFHGAFRKGPPKPMELLESTIYESSVVPAPKKAPMDSLFDYGTYRQHPSENKRWRRRVVEKPVAGTKGPAPNPPPILKV
In the case of B1, the binding result is listed as “binds”.
